# Experimental data: paper PMC3713010, “Sox2 Transcriptionally Regulates Pqbp1, an Intellectual Disability-Microcephaly Causative Gene, in Neural Stem Progenitor Cells”
# B1: 91 (dsDNA)
# DNA 1: GGGGGTTTGTTTGTTTGTTTTTAAAAATAAGGTCTCGGGCCCCC
# DNA 2: GGGGGCCCGAGACCTTATTTTTAAAAACAAACAAACAAACCCCC
# B2: 94 (dsDNA)
# DNA 1: GGGGGATCTGTAAAGGAAATTACTTTGTAGGAAATTTGATGGAACTGCCCCC
# DNA 2: GGGGGCAGTTCCATCAAATTTCCTACAAAGTAATTTCCTTTACAGATCCCCC
# B3: 97 (dsDNA)
# DNA 1: GGGGGTAGATGCTACAAAAGATACTGATTAAAACCCAAATGCCCCC
# DNA 2: GGGGGCATTTGGGTTTTAATCAGTATCTTTTGTAGCATCTACCCCC
# B4: 98 (dsDNA)
# DNA 1: GGGGGTTATGAATACAATTCATTATAACCATGGATCCCCC
# DNA 2: GGGGGATCCATGGTTATAATGAATTGTATTCATAACCCCC
# B5: 96 (dsDNA)
# DNA 1: GGGGGACATAGACACAAATAGCAGACAATGACCTTGACCCCC
# DNA 2: GGGGGTCAAGGTCATTGTCTGCTATTTGTGTCTATGTCCCCC
# B6: 92 (dsDNA)
# DNA 1: GGGGGATATAATAATAAATCTTTAAAACAAAAAAAAAAACCCCC
# DNA 2: GGGGGTTTTTTTTTTTGTTTTAAAGATTTATTATTATATCCCCC
# B7: 93 (dsDNA)
# DNA 1: GGGGGATAGAGGCACAAAAATTTCCAGAGACTGGCCCCC
# DNA 2: GGGGGCCAGTCTCTGGAAATTTTTGTGCCTCTATCCCCC
# B8: 95 (dsDNA)
# DNA 1: GGGGGGGTTTTCTTTTGTACACTTAATATCCGCTGGGGCCCCC
# DNA 2: GGGGGCCCCAGCGGATATTAAGTGTACAAAAGAAAACCCCCCC
# B9: 99 (dsDNA)
# DNA 1: GGGGGATATAACAAGATAATCATTGTTTTGAATATTCCAAGGATTTCCCCC
# DNA 2: GGGGGAAATCCTTGGAATATTCAAAACAATGATTATCTTGTTATATCCCCC
# Tests used:
# Experiment in all cases: EMSA; 10% glycerol, 20 mM HEPES pH 7.8, 45 mM KCl, 10 mM NaCl, 1 mM EDTA, 1 mM DTT, 0.2 ug/uL BSA, 0.1% NP-40, 50 ng poly-dIdC; 20 ng each GST protein; room temperature 30 min (heterodimers 4 C); 6% PAGE 0.25x TBE
# Details in all cases: protein: recombinant; tags: GST (N-terminal, pGEX-6P-1); label: 32P-dCTP fill-in of the 5' (dG)5 overhangs of both strands (Methods; control probes are given with GGG)
# [1] = target: T1, Oct6 DNA-binding domain (BD-Oct6) (Mus musculus (B6), UniProt P21952 317-416)
# T1 sequence: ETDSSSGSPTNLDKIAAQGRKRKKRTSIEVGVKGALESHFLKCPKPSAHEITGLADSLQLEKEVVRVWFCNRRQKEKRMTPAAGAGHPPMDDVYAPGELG
# Outline: (§1)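 DNA binding of transcription factor DNA-binding domains to candidate cis-elements was read from band radioactivity in the expected shift region. The GST-tagged domains came from E. coli BL21 via glutathione-sepharose; probes were annealed oligonucleotides labelled with 32P-dCTP. Each assay used 20 ng protein, 40,000–50,000 cpm probe and 50 ng poly-dIdC for 30 min at room temperature, followed by 6% polyacrylamide electrophoresis in 0.25×TBE at 4°C.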
# [2] = target: T2, Brn2 DNA-binding domain (BD-Brn2) (Mus musculus (B6), UniProt P31360 336-435)
# T2 sequence: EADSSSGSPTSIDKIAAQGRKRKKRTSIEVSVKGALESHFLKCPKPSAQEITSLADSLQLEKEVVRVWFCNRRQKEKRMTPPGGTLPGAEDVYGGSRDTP
# Outline: as §1
# [3] = target: Pax6 DNA-binding domain (BD-Pax6) (Mus musculus (B6), UniProt P63015 190-289)
# Chain of Pax6 DNA-binding domain (BD-Pax6) (P63015 190-289): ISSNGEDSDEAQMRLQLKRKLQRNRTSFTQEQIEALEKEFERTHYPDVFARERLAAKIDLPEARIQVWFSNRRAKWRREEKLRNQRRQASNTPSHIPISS
# Outline: as §1
binder,measurement,setting,value
B1,binding result,[1],binds
same,binding result,[2],no binding
same,binding result,[3],binds
B2,binding result,[1],binds
same,binding result,[2],binds
same,binding result,[3],binds
B3,binding result,[1],binds
same,binding result,[2],binds
same,binding result,[3],binds
B4,binding result,[1],binds
same,binding result,[2],binds
same,binding result,[3],no binding
B5,binding result,[1],no binding
same,binding result,[2],no binding
same,binding result,[3],no binding
B6,binding result,[1],binds
same,binding result,[2],binds
same,binding result,[3],binds
B7,binding result,[1],no binding
same,binding result,[2],no binding
same,binding result,[3],no binding
B8,binding result,[1],binds
same,binding result,[2],no binding
same,binding result,[3],binds
B9,binding result,[1],binds
same,binding result,[2],binds
same,binding result,[3],binds
